2 molecules from article PMC3499301 (mAbs, 2012) can be followed below.

Data set [1] deals with the molecule itself.
For the next data set, the target named is soluble human Tie2-Fc (human, UniProt Q02763). Briefly: ELISA.

In general, stoichiometry N refers to a count of units in the complex or per binding partner.

Sequence of soluble human Tie2-Fc (Q02763 23-748): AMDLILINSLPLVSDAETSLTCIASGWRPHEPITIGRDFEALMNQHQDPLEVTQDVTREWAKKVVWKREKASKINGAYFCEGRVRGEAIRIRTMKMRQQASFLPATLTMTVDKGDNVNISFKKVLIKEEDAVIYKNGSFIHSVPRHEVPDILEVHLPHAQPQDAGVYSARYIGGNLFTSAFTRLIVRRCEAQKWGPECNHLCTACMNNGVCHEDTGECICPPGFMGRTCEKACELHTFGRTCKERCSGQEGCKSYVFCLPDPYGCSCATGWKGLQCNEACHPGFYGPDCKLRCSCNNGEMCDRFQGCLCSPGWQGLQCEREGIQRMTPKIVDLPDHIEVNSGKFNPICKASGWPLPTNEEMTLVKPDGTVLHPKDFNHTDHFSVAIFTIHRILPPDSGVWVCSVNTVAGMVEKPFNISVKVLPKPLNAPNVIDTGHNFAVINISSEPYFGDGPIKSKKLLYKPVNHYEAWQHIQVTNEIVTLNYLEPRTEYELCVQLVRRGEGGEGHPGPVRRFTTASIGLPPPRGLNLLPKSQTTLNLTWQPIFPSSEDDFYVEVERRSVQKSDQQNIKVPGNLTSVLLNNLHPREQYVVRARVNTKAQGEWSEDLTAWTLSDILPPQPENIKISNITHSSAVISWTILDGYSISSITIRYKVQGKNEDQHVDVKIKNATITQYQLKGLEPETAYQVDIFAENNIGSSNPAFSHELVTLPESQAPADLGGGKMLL

B1: His-tagged Ang2 prepared in-house (Zyngenia) (ligand)
chain: YNNFRKSMDSIGKKQYQVQHGSCSYTFLLPEMDNCRSSSSPYVSNAVQRDAPLEYDDSVQRLQVLENIMENNTQWLMKLENYIQDNMKKEMVEIQQNAVQNQTAVMIEIGTNLLNQTAEQTRKLTDVEAQVLNQTTRLELQLLEHSLSTNKLEKQILDQTSEINKLQDKNSFLEKKVLAMEDKHIIQLQSIKEEKDQLQVLVSKQNSIIEELEKKIVTATVNNSVLQKQQHDLMETVNNLLTMMSTSNSAKDPTVAKEEQISFRDCAEVFKSGHTTNGIYTLTFPNSTEEIKAYCDMEAGGGGWTIIQRREDGSVDFQRTWKEYKVGFGNPSGEYWLGNEFVSQLTNQQRYVLKIHLKDWEGNEAYSLYEHFYLSSEELNYRIHLKGLTGTAGKISSISQPGNDFSTKDGDNDKCICKCSQMLTGGWWFDACGPSNLNGMYYPQRQNTNKFNGIKWYYWKGSGYSLKATTMMIRPADF
As for B1, in data set [1], the “stoichiometry N” value is 2.

B2: Recombinant human Ang2 (R&D Systems) (ligand)
chain: B1 chain
As to B2, the binding result with soluble human Tie2-Fc was “binds”.
